Test results from US20150017095A1 (AbbVie / Abbott, published 2015).
Substitutions are numbered along the chain they refer to.

Columns and labels:
murine TNFα [1] = target: T1, murine TNFα (murine, UniProt P06804 80-235); test: cell-based or functional assay
T1 sequence (looked up): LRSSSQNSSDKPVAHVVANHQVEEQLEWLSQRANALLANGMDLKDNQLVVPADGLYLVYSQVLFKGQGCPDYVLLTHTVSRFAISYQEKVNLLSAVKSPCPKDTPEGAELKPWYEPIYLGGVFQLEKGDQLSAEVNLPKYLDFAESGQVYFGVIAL

murine TNFα [2] = target: T1, murine TNFα; test: ELISA, TNFα binding activity (Example 2.2.3.3)
Recombinant Human IL-15 = Recombinant Human IL-15 (human, UniProt P40933 49-162); test: BIACORE SPR, DVD-Ig captured, antigen in flow (N-terminal VD)
Recombinant Human IL-15, sequence (P40933 49-162 limits assumed): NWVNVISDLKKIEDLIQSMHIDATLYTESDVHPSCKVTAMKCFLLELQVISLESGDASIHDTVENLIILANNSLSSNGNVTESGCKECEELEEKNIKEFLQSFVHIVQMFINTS
Method: (§1) The BIACORE assay (Biacore, Inc, Piscataway, N.J.) determines the affinity of antibodies or DVD-Ig with kinetic measurements of on-rate and off-rate constants. […] All chemicals are obtained from Biacore® AB (Uppsala, Sweden) or otherwise from a different source as described in the text. For example, approximately 5000 RU of goat anti-mouse IgG, (Fcγ), fragment specific polyclonal antibody (Pierce Biotechnology Inc, Rockford, Ill.) diluted in 10 mM sodium acetate (pH 4.5) is directly immobilized across a CM5 research grade biosensor chip using a standard amine coupling kit according to manufacturer's instructions and procedures at 25 μg/ml. Unreacted moieties on the biosensor surface are blocked with ethanolamine. Modified carboxymethyl dextran surface in flowcell 2 and 4 is used as a reaction surface. Unmodified carboxymethyl dextran without goat anti-mouse IgG in flow cell 1 and 3 is used as the reference surface. For kinetic analysis, rate equations derived from the 1:1 Langmuir binding model are fitted simultaneously to association and dissociation phases of all eight injections (using global fit analysis) with the use of Biaevaluation 4.0.1 software. Purified antibodies or DVD-Ig are diluted in HEPES-buffered saline for capture across goat anti-mouse IgG specific reaction surfaces. Antibodies or DVD-Ig to be captured as a ligand (25 μg/m) are injected over reaction matrices at a flow rate of 5 μl/min. The association and dissociation rate constants, kₒₙ (M⁻¹s⁻¹) and koff (s⁻¹) are determined under a continuous flow rate of 25 μl/min. Rate constants are derived by making kinetic binding measurements at different antigen concentrations ranging from 10-200 nM. The equilibrium dissociation constant (M) of the reaction between antibodies or DVD-Igs and the target antigen is then calculated from the kinetic rate constants by the following formula: KD=koff/kₒₙ. Binding is recorded as a function of time and kinetic rate constants are calculated.

[3] = target: T2, Recombinant Human IL-6 sR (human, UniProt P08887 20-358); test: direct bind ELISA, antigen coated on plate (C-terminal VD)
T2 construct: domain: IL-6 sR; Bought reagent; also called IL-6R
T2 sequence (looked up): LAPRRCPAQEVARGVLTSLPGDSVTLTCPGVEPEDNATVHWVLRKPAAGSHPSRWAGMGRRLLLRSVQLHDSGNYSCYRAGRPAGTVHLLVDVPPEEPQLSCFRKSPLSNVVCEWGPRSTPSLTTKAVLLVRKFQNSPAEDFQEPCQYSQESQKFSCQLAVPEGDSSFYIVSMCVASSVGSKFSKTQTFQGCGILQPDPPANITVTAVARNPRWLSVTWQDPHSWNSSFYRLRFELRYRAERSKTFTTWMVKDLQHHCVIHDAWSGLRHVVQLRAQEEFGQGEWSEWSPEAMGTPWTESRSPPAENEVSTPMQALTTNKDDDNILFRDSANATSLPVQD
Method: (§2) Enzyme Linked Immunosorbent Assays to screen for antibodies that bind a desired target antigen were performed as follows. High bind ELISA plates (Corning Costar #3369, Acton, Mass.) were coated with 100 μL/well of 10 μg/ml of desired target antigen (R&D Systems, Minneapolis, Minn.) or desired target antigen extra-cellular domain/FC fusion protein (R&D Systems, Minneapolis, Minn.) or monoclonal mouse anti-polyHistidine antibody (R&D Systems # MAB050, Minneapolis, Minn.) in phosphate buffered saline (10×PBS, Abbott Bioresearch Center, Media Prep# MPS-073, Worcester, Mass.) overnight at 4° C. Plates were washed four times with PBS containing 0.02% Tween 20. Plates were blocked by the addition of 300 μL/well blocking solution (non-fat dry milk powder, various retail suppliers, diluted to 2% in PBS) for ½ hour at room temperature. Plates were washed four times after blocking with PBS containing 0.02% Tween 20.
(§3) Plates were washed 4 times with PBS containing 0.02% Tween 20.
(§4) One hundred microliters of enhanced TMB solution (Neogen Corp. #308177, K Blue, Lexington, Ky.) was added to each well and incubated for 10 minutes at room temperature. The reaction was stopped by the addition of 50 μL 1N sulphuric acid.

[4] = target: T2, Recombinant Human IL-6 sR; test: BIACORE SPR, DVD-Ig captured, antigen in flow (C-terminal VD)
Method: as §1

Recombinant Human β-NGF = Recombinant Human β-NGF (human, UniProt P01138 122-239, limits assumed); test: BIACORE SPR, DVD-Ig captured, antigen in flow (C-terminal VD); BIACORE, DVD-Ig captured, NGF in flow, 25 C; C-terminal VD
Recombinant Human β-NGF, sequence (P01138 122-239 limits assumed): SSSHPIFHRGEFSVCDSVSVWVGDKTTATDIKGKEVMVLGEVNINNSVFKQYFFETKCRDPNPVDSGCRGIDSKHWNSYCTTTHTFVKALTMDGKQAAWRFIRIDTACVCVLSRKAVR
Method: as §1

[5] = target: T2, Recombinant Human IL-6 sR; test: BIACORE SPR, antibody captured, antigen in flow
Method: as §1

[6] = target: T2, Recombinant Human IL-6 sR; test: direct bind ELISA, antigen coated on plate
Method: as §2, §3, §4

B1: 2B5-hLL-8C11 anti-murine TNFα/anti-PGE2 DVD-Ig with human long linker (bispecific antibody, human IgG1)
VH: QVQLQQSGPELVRPGSSVKISCKASGYTFTKYWLGWVKQRPGHGLEWIGDIYPGYDYTHYNEKFKDKATLTVDTSSSTAYMQLSSLTSEDSAIYYCARSDGSSTYWGQGTLVTVSAASTKGPSVFPLAPEFQLQQSGPELVKPGASVRISCKASGYSFTDYNMNWVKQSNGKSLEWVGVINPNYGSSTYNQKFKGKATLTVDQSSSTAYMQLNSLTSEDSAVYYCARKWGQLGRGFFDVWGTGTTVTVSS
VL: DVLMTQTPLSLPVSLGDQASISCTSSQNIVHSNGNTYLEWYLQRPGQSPKLLIYKVSNRFSGVPDRFSGSGSGTVFTLKISRVEAEDLGVYYCFQVSHVPYTFGGGTKLEIKRTVAAPSVFIFPPQIVLSQSPAILSASPGEKVTMTCRASSSVSYMHWFQQKPGSSPKPWIYATSNLASGVPARFSGSGSGTSYSLTISRVEAEDAATYYCQQWSSSPLTFGAGTKLELKR
notes: DVD-Ig; Outer domain is 2B5 (PGE2), inner domain is 8C11 (murine TNFα)
What does the source list for B1?
IC50, L929 assay (TNFα-induced cell death) (murine TNFα [1]): 0.088 nM; IC50 (murine TNFα [2]): 0.256 nM

B2: DVD154 (IL-15 / PGE2 DVD-Ig) (bispecific antibody)
VH: EVQLVQSGAEVKKPGESLKISCKVSGYFFTTYWIGWVRQMPGKGLEYMGIIYPGDSDTRYSPSFQGQVTISADKSISTAYLQWSSLKASDTAMYYCARGGNWNCFDYWGQGTLVTVSSASTKGPEVQLVQSGAEVKKPGASVKVSCKASGYTFTKYWLGWVRQAPGQGLEWMGDIYPGYDYTHYNEKFKDRVTLTTDTSTSTAYMELRSLRSDDTAVYYCARSDGSSTYWGQGTLVTVSS
VL: EIVLTQSPGTLSLSPGERATLSCRASQSVSSSYLAWYQQKPGQAPRLLIYGASRRATGIPDRFSGSGSGTDFTLTISRLEPEDFAVYYCQRYGSSHTFGQGTKLEISRTVAAPDVLMTQTPLSLPVTPGEPASISCTSSQNIVHSNGNTYLEWYLQKPGQSPQLLIYKVSNRFSGVPDRFSGSGSGTDFTLKISRVEAEDVGVYYCFQVSHVPYTFGGGTKVEIKR
notes: Outer domain is AB049 (IL-15), inner domain is AB048 (PGE2); also called VD154H; VD154L
What does the source list for B2?
Kd (Recombinant Human IL-15): 4.89 nM; koff (Recombinant Human IL-15): 0.00198 s⁻¹; kon (Recombinant Human IL-15): 404000 M⁻¹ s⁻¹

B3: 2B5-hSL-8C11 anti-murine TNFα/anti-PGE2 DVD-Ig with human short linker (bispecific antibody)
VH: QVQLQQSGPELVRPGSSVKISCKASGYTFTKYWLGWVKQRPGHGLEWIGDIYPGYDYTHYNEKFKDKATLTVDTSSSTAYMQLSSLTSEDSAIYYCARSDGSSTYWGQGTLVTVSAASTKGPEFQLQQSGPELVKPGASVRISCKASGYSFTDYNMNWVKQSNGKSLEWVGVINPNYGSSTYNQKFKGKATLTVDQSSSTAYMQLNSLTSEDSAVYYCARKWGQLGRGFFDVWGTGTTVTVSS
VL: DVLMTQTPLSLPVSLGDQASISCTSSQNIVHSNGNTYLEWYLQRPGQSPKLLIYKVSNRFSGVPDRFSGSGSGTVFTLKISRVEAEDLGVYYCFQVSHVPYTFGGGTKLEIKRTVAAPQIVLSQSPAILSASPGEKVTMTCRASSSVSYMHWFQQKPGSSPKPWIYATSNLASGVPARFSGSGSGTSYSLTISRVEAEDAATYYCQQWSSSPLTFGAGTKLELKR
notes: DVD-Ig; Outer domain is 2B5 (PGE2), inner domain is 8C11 (murine TNFα); also called 2B5-huSL-8C11
For B3, which “IC50, L929 assay (TNFα-induced cell death)” value (murine TNFα [1]) is on record?
Its value is 4.39 nM.

And the IC50 (murine TNFα [2])?
Its IC50 is 0.234 nM.

B4: anti-TNFα monoclonal antibody clone 8C11 (antibody, V domains shown)
VH: EFQLQQSGPELVKPGASVRISCKASGYSFTDYNMNWVKQSNGKSLEWVGVINPNYGSSTYNQKFKGKATLTVDQSSSTAYMQLNSLTSEDSAVYYCARKWGQLGRGFFDVWGTGTTVTVSS
VL: QIVLSQSPAILSASPGEKVTMTCRASSSVSYMHWFQQKPGSSPKPWIYATSNLASGVPARFSGSGSGTSYSLTISRVEAEDAATYYCQQWSSSPLTFGAGTKLELKR
notes: Murine hybridoma antibody against murine TNFα; also called 8C11-1E10; anti-mouse TNF monoclonal antibody
How did the “IC50, L929 assay (TNFα-induced cell death)” value (murine TNFα [1]) turn out when B4 was run?
Its value is 5.85 nM.

What about the IC50 (murine TNFα [2]) of the same binder?
Its IC50 is 0.201 nM.

B5: DVD151 (PGE2 / IL-6R DVD-Ig) (bispecific antibody, human IgG1)
VH: EVQLVQSGAEVKKPGASVKVSCKASGYTFTKYWLGWVRQAPGQGLEWMGDIYPGYDYTHYNEKFKDRVTLTTDTSTSTAYMELRSLRSDDTAVYYCARSDGSSTYWGQGTLVTVSSASTKGPEVQLQESGPGLVRPSQTLSLTCTVSGYSITSDHAWSWVRQPPGRGLEWIGYISYSGITTYNPSLKSRVTMLRDTSKNQFSLRLSSVTAADTAVYYCARSLARTTAMDYWGQGSLVTVSS
VL: DVLMTQTPLSLPVTPGEPASISCTSSQNIVHSNGNTYLEWYLQKPGQSPQLLIYKVSNRFSGVPDRFSGSGSGTDFTLKISRVEAEDVGVYYCFQVSHVPYTFGGGTKVEIKRTVAAPDIQMTQSPSSLSASVGDRVTITCRASQDISSYLNWYQQKPGKAPKLLIYYTSRLHSGVPSRFSGSGSGTDFTFTISSLQPEDIATYYCQQGNTLPYTFGQGTKVEIKR
notes: Outer domain is AB048 (PGE2), inner domain is AB054 (IL-6R); also called VD151H; VD151L
With B5 as the binder, how does the EC50 [3] read?
The EC50 was 26500 nM.

And the Kd [4]?
The Kd was 5.94 nM.

What about the koff [4] of the same binder?
Its koff is 0.00015 s⁻¹.

What about the kon [4] of the same binder?
The kon was 25300 M⁻¹ s⁻¹.

B6: DVD163 (PGE2 / NGF DVD-Ig) (bispecific antibody)
VH: EVQLVQSGAEVKKPGASVKVSCKASGYTFTKYWLGWVRQAPGQGLEWMGDIYPGYDYTHYNEKFKDRVTLTTDTSTSTAYMELRSLRSDDTAVYYCARSDGSSTYWGQGTLVTVSSASTKGPQVQLQESGPGLVKPSETLSLTCTVSGFSLIGYDLNWIRQPPGKGLEWIGIIWGDGTTDYNSAVKSRVTISKDTSKNQFSLKLSSVTAADTAVYYCARGGYWYATSYYFDYWGQGTLVTVSS
VL: B5 VL with D146S, S149N, Y150N, L172F, G209E, N210H, V222L
notes: Outer domain is AB048 (PGE2), inner domain is AB020 (NGF); also called VD163H; VD3163L
With B6 as the binder, how does the Kd (Recombinant Human β-NGF) read?
The Kd was 0.122 nM.

And the koff (Recombinant Human β-NGF)?
Its koff is 1.03e-06 s⁻¹.

And the kon (Recombinant Human β-NGF)?
Its kon is 8400 M⁻¹ s⁻¹.

B7: AB054 anti-IL-6R parent antibody (antibody, human IgG1, V domains shown)
VH: EVQLQESGPGLVRPSQTLSLTCTVSGYSITSDHAWSWVRQPPGRGLEWIGYISYSGITTYNPSLKSRVTMLRDTSKNQFSLRLSSVTAADTAVYYCARSLARTTAMDYWGQGSLVTVSS
VL: DIQMTQSPSSLSASVGDRVTITCRASQDISSYLNWYQQKPGKAPKLLIYYTSRLHSGVPSRFSGSGSGTDFTFTISSLQPEDIATYYCQQGNTLPYTFGQGTKVEIKR
What does the source list for B7?
Kd [5]: 0.448 nM; koff [5]: 0.00016 s⁻¹; kon [5]: 357000 M⁻¹ s⁻¹; EC50 [6]: 1.75 nM
